# Test results taken from patent publication US4251628A, “Substrates for angiotensin converting enzyme” (priority 1978, dated 1981).
# Substrate: O=C(O)CNC(=O)CNC(=O)CNC(=O)c1ccccc1
# Assay: ACE assay: hydrolysis of ^3H-HipGlyGly by human serum, Lineweaver-Burke Km
# Assay type: biochemical
# Details: other: human serum, pH 8.0, 37° C., 60 min
# Description: The following sample illustrates the preferred assay method, the sensitivity of the assay and the Km for ^3 H-HipGlyGly. The reaction buffer contains 0.05 M Hepes, 0.1 M sodium chloride and 0.6 M sodium sulphate at pH 8.0. (Pepes is N-2-Hydroxyethyl piperazine N'-2-ethane sulfonic acid.) The substrate, ^3 H-HipGlyGly was dissolved in reaction buffer at a concentration of 16 mM and a specific radioactivity of about 0.15 millicuries/millimole. Serum was prepared from fresh whole blood by standard techniques. […] Hemolyzed samples were not used in the assay. Serum samples could be stored at least for one week at 2° C. to 8° C. or for at least 8 weeks frozen, prior to assaying. For the assay, 50 μl. of serum was diluted with 200 μl. of reaction buffer. […]
# A control determination of background radioactivity was made using 50 μl. of reaction buffer instead of diluted serum in the reaction mixture. […] Total radioactivity was determined by counting an amount of substrate equal to that used in the reaction mixture directly in the scintillation counter.
# Reaction velocity, in terms of nanomoles of product formed per minute per ml of serum was calculated according to the following formula: [formula] In this formula, "nmoles" means nanomoles, "min" means minutes, "ml" means milliliters and "cpm" means radioactivity counts per minute. […]
protein,measurement,value
"angiotensin converting enzyme (ACE) (Homo sapiens) (protein, Serum was prepared from fresh whole blood by standard techniques; from tissue; host or cells: serum (unfractionated)) LDPGLQPGNFSADEAGAQLFAQSYNSSAEQVLFQSVAASWAHDTNITAENARRQEEAALLSQEFAEAWGQKAKELYEPIWQNFTDPQLRRIIGAVRTLGSANLPLAKRQQYNALLSNMSRIYSTAKVCLPNKTATCWSLDPDLTNILASSRSYAMLLFAWEGWHNAAGIPLKPLYEDFTALSNEAYKQDGFTDTGAYWRSWYNSPTFEDDLEHLYQQLEPLYLNLHAFVRRALHRRYGDRYINLRGPIPAHLLGDMWAQSWENIYDMVVPFPDKPNLDVTSTMLQQGWNATHMFRVAEEFFTSLELSPMPPEFWEGSMLEKPADGREVVCHASAWDFYNRKDFRIKQCTRVTMDQLSTVHHEMGHIQYYLQYKDLPVSLRRGANPGFHEAIGDVLALSVSTPEHLHKIGLLDRVTNDTESDINYLLKMALEKIAFLPFGYLVDQWRWGVFSGRTPPSRYNFDWWYLRTKYQGICPPVTRNETHFDAGAKFHVPNVTPYIRYFVSFVLQFQFHEALCKEAGYEGPLHQCDIYRSTKAGAKLRKVLQAGSSRPWQEVLKDMVGLDALDAQPLLKYFQPVTQWLQEQNQQNGEVLGWPEYQWHPPLPDNYPEGIDLVTDEAEASKFVEEYDRTSQVVWNEYAEANWNYNTNITTETSKILLQKNMQIANHTLKYGTQARKFDVNQLQNTTIKRIIKKVQDLERAALPAQELEEYNKILLDMETTYSVATVCHPNGSCLQLEPDLTNVMATSRKYEDLLWAWEGWRDKAGRAILQFYPKYVELINQAARLNGYVDAGDSWRSMYETPSLEQDLERLFQELQPLYLNLHAYVRRALHRHYGAQHINLEGPIPAHLLGNMWAQTWSNIYDLVVPFPSAPSMDTTEAMLKQGWTPRRMFKEADDFFTSLGLLPVPPEFWNKSMLEKPTDGREVVCHASAWDFYNGKDFRIKQCTTVNLEDLVVAHHEMGHIQYFMQYKDLPVALREGANPGFHEAIGDVLALSVSTPKHLHSLNLLSSEGGSDEHDINFLMKMALDKIAFIPFSYLVDQWRWRVFDGSITKENYNQEWWSLRLKYQGLCPPVPRTQGDFDPGAKFHIPSSVPYIRYFVSFIIQFQFHEALCQAAGHTGPLHKCDIYQSKEAGQRLATAMKLGFSRPWPEAMQLITGQPNMSASAMLSYFKPLLDWLRTENELHGEKLGWPQYNWTPNSAR",Km,6.25 mM
